Results published in patent US20250340662A1.
Values belong to the binder of their own block, whether it stands above or below them.

How the values were obtained:
[1] = biological target: T1, Human v6-peptide (human); assay: SPR SCK, antibody immobilised, peptide injected
T1 sequence (peptide, N-terminal biotin): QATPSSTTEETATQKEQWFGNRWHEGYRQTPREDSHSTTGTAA

[2] = biological target: Cynomolgus v6-peptide (cynomolgus); assay: SPR SCK, antibody immobilised, peptide injected
[3] = biological target: Human CD44v6 iso4-Fc (human) (UniProt P16070); assay: SPR SCK, antibody immobilised, CD44v6-Fc injected
[4] = biological target: Human CD44v6 iso4-Fc (human) (UniProt P16070); assay: SPR SCK, antibody immobilised, CD44v6-Fc injected; apparent KD
[5] = biological target: CD44v6 on cultured cancer cells (BHT-101, ACT-1, A431) (human) (UniProt P16070); assay: live BHT-101 cells; apparent KD
[6] = biological target: CD44v6 on cultured cancer cells (BHT-101, ACT-1, A431) (human) (UniProt P16070); assay: LigandTracer, 177Lu-antibody on A431 cells
[7] = biological target: CD44v6 on cultured cancer cells (BHT-101, ACT-1, A431) (human) (UniProt P16070); assay: LigandTracer, 125I-IgG4 on BHT-101 cells

Chain of Cynomolgus v6-peptide (cynomolgus) (peptide, as listed by the source): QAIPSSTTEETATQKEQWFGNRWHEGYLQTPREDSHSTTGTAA
Chain of Human CD44v6 iso4-Fc (human) (P16070 other isoform, or with tags, fused parts or gaps limits assumed): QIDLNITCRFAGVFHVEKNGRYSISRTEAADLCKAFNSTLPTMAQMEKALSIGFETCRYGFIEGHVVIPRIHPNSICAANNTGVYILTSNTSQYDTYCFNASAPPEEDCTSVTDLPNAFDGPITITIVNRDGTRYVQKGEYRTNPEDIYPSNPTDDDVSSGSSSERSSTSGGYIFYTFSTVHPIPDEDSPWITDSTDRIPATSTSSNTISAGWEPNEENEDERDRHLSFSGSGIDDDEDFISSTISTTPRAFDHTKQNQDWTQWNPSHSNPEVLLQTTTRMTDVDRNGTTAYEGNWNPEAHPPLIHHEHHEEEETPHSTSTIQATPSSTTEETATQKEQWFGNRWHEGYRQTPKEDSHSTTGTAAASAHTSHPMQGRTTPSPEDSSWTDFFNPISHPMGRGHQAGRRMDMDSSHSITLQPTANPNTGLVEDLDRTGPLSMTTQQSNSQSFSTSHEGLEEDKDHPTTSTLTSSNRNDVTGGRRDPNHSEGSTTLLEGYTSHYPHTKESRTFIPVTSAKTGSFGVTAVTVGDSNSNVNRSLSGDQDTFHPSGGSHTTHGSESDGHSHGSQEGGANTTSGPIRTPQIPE

Kd [1]: 73 nM
koff [1]: 0.0027 s⁻¹
kon [1]: 36000 M⁻¹ s⁻¹
Kd [2]: 44 nM
koff [2]: 0.0036 s⁻¹
kon [2]: 83000 M⁻¹ s⁻¹
koff [3]: 0.00033 s⁻¹
kon [3]: 24000 M⁻¹ s⁻¹
Kd [4]: 14 nM
B1: BIWA4 IgG1 LALA IAHA (antibody, from another filing, V domains shown)
VH: EVQLVESGGGLVKPGGSLRLSCAASGFTFSSYDMSWVRQAPGKGLEWVSTISSGGSYTYYLDSIKGRFTISRDNAKNSLYLQMNSLRAEDTAVYYCARQGLDYWGRGTLVTVSS
VL: EIVLTQSPATLSLSPGERATLSCSASSSINYIYWYQQKPGQAPRLLIYLTSNLASGVPARFSGSGSGTDFTLTISSLEPEDFAVYYCLQWSSNPLTFGGGTKVEIKR

Kd [5]: < 0.2 nM
Kd [6]: 0.03 nM
Kd [7]: 0.03 nM
B2: AL-MN114-465 hIgG4 (antibody, V domains shown)
VH: EVQLLESGGGLVQPGGSLRLSCAASGFSFGSYAMSWVRQAPGKGLEWVSAISAGGSSTFYADSVKGRFTISRDNSKNTLYLQMNSLRAEDTAVYYCARHYYSDSDYRSSAAMDYWGQGTLVTVSS
VL: DIQMTQSPSSLSASVGDRVTITCRASQSISSYLNWYQQKPGKAPKLLIYTASSLQSGVPSRFSGSGSGTDFTLTISSLQPEDFATYYCQQDLYLLTFGQGTKLEIK
